Assay results reported in patent US20110091971A1, “Differentiation of Pluripotent Stem Cells” (priority 2008, published 2011).

Experiments:
[1] = test system: Human Embryonic Stem Cells (H1 hESC line); experiment: FACS analysis of CXCR4 at conclusion of first step of step-wise differentiation (Example 12); type: cell-based; settings: 100 ng/ml peptide, end of first step (three days), FIG. 23A, 23B
Description: (§1) Preparation of Cells for Assay: Stock Cultures of Human Embryonic Stem Cells (H1 hESC line) were maintained in an undifferentiated, pluripotent state on growth factor-reduced MATRIGEL™-coated dishes in MEF conditioned medium supplemented with bFGF (PeproTech; Cat #100-18B) with passage on average every, four days. Passage was performed by exposing cell cultures to a solution of 1 mg/ml collagenase (Invitrogen, Cat #17104-019) for five to seven minutes at 37° C. followed by rinsing the monolayer with MEF conditioned medium and gentle scraping to recover cell clusters. Clusters were centrifuged at low speed to collect a cell pellet and remove residual collagenase. Cell clusters were split at a 1:3 or 1:4 ratio for routine maintenance culture or a 1:1 ratio for immediate assay. All human ES cell lines were maintained at passage numbers less than 50 and routinely evaluated for normal karyotypic phenotype and for absence of mycoplasma contamination.
(§2) Cell clusters were evenly resuspended in MEF conditioned medium supplemented with 8 ng/ml bFGF and seeded onto growth factor-reduced MATRIGEL™-coated 24-well, black wall culture plates (Arctic White; Cat #AWLS-303012) in volumes of 0.5 ml/well. Daily feeding was conducted by aspirating spent culture medium from each well and replacing with an equal volume of fresh medium. Plates were maintained at 37° C., 5% CO2 throughout the duration of assay.
(§3) Assay: The assay was initiated by aspirating culture medium from each well and adding back an aliquot (0.5 ml) of test medium. Test conditions for the first step of differentiation were conducted over a three-day period, feeding daily by aspirating and replacing the medium from each well with fresh test medium. Concentrated supernatants of the ACTN peptides were evaluated for protein concentration using a DuoSet ELISA kit for human activin A (R&D Systems; Cat #DY338), as previously described in Example 11. On the first day of assay, ACTN peptides were diluted to a final concentration of 100 ng/ml in RPMI 1640 medium (Invitrogen; Cat #: 22400) with 2% Albumin Bovine Fraction V, Fatty Acid Free (FAF BSA) (MP Biomedicals, Inc; Cat #152401), 8 ng/ml bFGF, and 20 ng/ml Wnt3a (R&D Systems; Cat #1324-WN/CF) and then added to the assay wells. On the second and third day of assay, ACTN peptides were diluted into RPMI 1640 medium supplemented with 2% fatty acid free BSA and 8 ng/ml bFGF, without any Wnt3a and then added to the assay wells. A positive control sample included a commercial source of activin A (PeproTech; Cat #12 0-14) diluted in culture medium with growth factors as indicated. At the conclusion of three days culture, cells from some wells were harvested for analysis by flow cytometry to evaluate levels of CXCR4, a marker of definitive endoderm formation. […]

[2] = test system: Human Embryonic Stem Cells (H1 hESC line); experiment: High content analysis of cell number and SOX17 expression at end of first step of differentiation (Example 12); type: cell-based; settings: 100 ng/ml peptide, FIG. 23C-F
Description: as §1, §2, §3

Row | Molecule | CXCR4 expression (FACS) [1] | cell number and SOX17 expression (high content analysis) [2]
1 | ACTN1: wild type Activin A mature protein (SwissProt/UniProt: P08476), SEQ ID 2, expressed from applicant's construct (protein) GLECDGKVNICCKKQFFVSFKDIGWNDWIIAPSGYHANYCEGECPSHIAGTSGSSLSFHSTVINHYRMRGHSPFANLKSCCVPTKLRPMSMLYYDDGQNIIKKDIQNMIVEECGCS | equivalent and robust CXCR4 expression | equivalent results
2 | ACTN4: activin A variant peptide, SEQ ID 5 (protein) GLECDGKVNLCCKKQLFVSFKDIGWNDWIIAPSGYHANHCSGLCPSHIAGTSGSSLSFHSTVINHYRMRGHSPFSDMGACCVPTKLRPMSMLYYDDGQNIIKKDIQNMIVEECGCS | equivalent or comparable | comparable results
3 | ACTN48: activin A variant peptide, SEQ ID 49 (protein) GLECDGKVNLCCKKQNFVSFKDIGWNDWIIAPSGYHANECSGLCPSHIAGTSGSSLSFHSTVINHYRMRGHSPFANMGACCIPTKLRPMSMLYYDDGQNIIKKDIQNMIVEECGCS | equivalent or comparable | comparable results
